The results in this text go back to patent US4745067A, “L-aminoacylases” (Microbial Chemistry Research Foundation, priority 1985, dated 1988).

Format in all cases: biochemical
Common to all, as to design: key: +: active; -: inactive
Holding throughout (details): Table 7

Assay [1] in a line: Comparison of substrate profiles of L-aminoacylases, substrate L-N-acetyl-methionine. Here is the method: (§1) The substrate profiles of L-aminoacylase S1 and L-aminoacylase S2 of the present invention and conventional L-aminoacylases were measured.
(§2) L-aminoacylase S1 and L-aminoacylase S2 of the present invention was compared with commercially available L-aminoacylases in their activity by using N-acetyl derivatives of D- or L-methionine and L-threo-3-(3,4-dibenzyloxyphenyl) serine as substrates.

Assay [2] is described as follows: Comparison of substrate profiles of L-aminoacylases, substrate D-N-acetyl-methionine. On the procedure: as §1, §2
The nature of assay [3]: Comparison of substrate profiles of L-aminoacylases, substrate L-threo-N-acetyl-3-(3,4-dibenzyloxyphenyl)serine. On the procedure:
as §1, §2

B1: Acylase I: commercially available aminoacylase (hog kidney), manufactured by Miles Laboratory (protein, UniProt P37111 2-407, looked up)
Aminoacylase-1: ASKGREGEHPSVTLFRQYLRIRTVQPEPDYGAAVAFLEERARQLGLGCQKVEVVPGHVVTVLTWPGTNPTLSSILLNSHTDVVPVFKEHWSHDPFEGFKDADGYIYGRGAQDMKCVSIQYLEAVRRLKVEGHHFPRTIHMTFVPDEEVGGHQGMELFVKRPEFQALRAGFALDEGLASPTDAFTVFYSERSPWWLRVTSTGKPGHGSRFIEDTAAEKLHKVINSILAFREKEKQRLQSNQLKPGAVTSVNLTMLEGGVAYNVVPATMSACFDFRVAPDVDLKAFEEQLQSWCQAAGEGVTFEFVQKWMETQVTSTDDSDPWWAAFSGVFKDMKLALELEICPASTDARYIRAAGVPALGFSPMNHTPVLLHDHDERLHEAVFLRGVDIYTQLLSALASVPALPSES
Regarding B1, in assay [1], the “Activity on substrate L-N-acetyl-methionine” value is “+”. Moreover, in assay [2], the “Activity on substrate D-N-acetyl-methionine” value is on record as “-”. The “Activity on substrate L-threo-N-acetyl-3-(3,4-dibenzyloxyphenyl)serine” value in assay [3] is listed as “-”.
